Test results reported in article doi:10.1101/2022.02.17.480751 (bioRxiv, 2022).

How the values were obtained:
[1] = biological target: SARS-CoV-2 S receptor-binding domain (RBD, residues 329-538, Wuhan-Hu-1), Strep-tagged (SARS-CoV-2, Wuhan-Hu-1, UniProt P0DTC2); test: ELISA
[2] = biological target: SARS-CoV-2 S1 (residues 1-682, Wuhan-Hu-1), Strep-tagged (SARS-CoV-2, Wuhan-Hu-1, UniProt P0DTC2); test: ELISA

B1: 87G7 human monoclonal antibody (recombinant human IgG1/kappa) (antibody, V domains shown)
VH: EVQLLESGGGLVQPGGSLRLSCVASGFTFSSYVMSWVRQAPGKGLEWVAAISGSGGNTYYADSVKGRFTISRDNSKNTLYLQMNSLRAEDTAVYYCAKEGTYYYGSGSFWGQGTLVTVSS
VL: EIVLTQSPATLSLSPGERATLSCRASQSFHNYLAWYQQKPGRAPRLLIFDASNRATGIPARFSGSGSGTDFTLTISSLEPEDFAVYYCQQRFNWPLTFGGGTKVEIK
- binding result [1]: binds
- binding result [2]: binds

B2: REGN10987 (recombinant human IgG1/kappa) (antibody, V domains shown)
VH: QVQLVESGGGVVQPGRSLRLSCAASGFTFSNYAMYWVRQAPGKGLEWVAVISYDGSNKYYADSVKGRFTISRDNSKNTLYLQMNSLRTEDTAVYYCASGSDYGDYLLVYWGQGTLVTVSS
VL: QSALTQPASVSGSPGQSITISCTGTSSDVGGYNYVSWYQQHPGKAPKLMIYDVSKRPSGVSNRFSGSKSGNTASLTISGLQSEDEADYYCNSLTSISTWVFGGGTKLTVL
- binding result [2]: binds

B3: REGN10933 (recombinant human IgG1/kappa) (antibody, V domains shown)
VH: QVQLVESGGGLVKPGGSLRLSCAASGFTFSDYYMSWIRQAPGKGLEWVSYITYSGSTIYYADSVKGRFTISRDNAKSSLYLQMNSLRAEDTAVYYCARDRGTTMVPFDYWGQGTLVTVSS
VL: DIQMTQSPSSLSASVGDRVTITCQASQDITNYLNWYQQKPGKAPKLLIYAASNLETGVPSRFSGSGSGTDFTFTISGLQPEDIATYYCQQYDNLPLTFGGGTKVEIK
- binding result [2]: binds
